Reference: patent US20250382359A1 (BYOMASS, published 2025)

T1: Human GDF15 Fc (human, UniProt Q99988 195-308, limits assumed, biotinylated (EZ-Link Sulfo-NHS-Biotinylation Kit) in the SPR assay)
T1 construct: also called human GDF15-Fc fusion; biotinylated Human GDF15 Fc; not shown: Fc part
T1 sequence: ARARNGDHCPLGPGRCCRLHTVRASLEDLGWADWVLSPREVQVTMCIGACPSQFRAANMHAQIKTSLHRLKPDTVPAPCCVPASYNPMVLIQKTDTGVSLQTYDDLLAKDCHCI

T2: Mouse GDF15 Fc (mouse, UniProt Q9Z0J7 189-303, limits assumed)
T2 construct: also called mouse GDF15-Fc fusion; not shown: Fc part
T2 sequence (looked up): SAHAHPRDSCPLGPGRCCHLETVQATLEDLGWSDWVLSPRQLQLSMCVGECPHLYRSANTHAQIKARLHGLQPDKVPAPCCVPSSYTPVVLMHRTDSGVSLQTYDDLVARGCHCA

T3: Cyno GDF15 Fc (cyno, UniProt G7PWZ3 193-308, limits assumed)
T3 construct: also called cyno GDF15-Fc fusion; not shown: Fc part
T3 sequence: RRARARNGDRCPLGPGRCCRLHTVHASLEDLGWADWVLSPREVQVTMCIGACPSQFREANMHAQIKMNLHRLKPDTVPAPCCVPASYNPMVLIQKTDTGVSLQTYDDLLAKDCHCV

T4: GDF15 (ligand used in the GFRAL/RET cell assays) (UniProt Q99988 197-308, limits assumed)
T4 sequence (looked up): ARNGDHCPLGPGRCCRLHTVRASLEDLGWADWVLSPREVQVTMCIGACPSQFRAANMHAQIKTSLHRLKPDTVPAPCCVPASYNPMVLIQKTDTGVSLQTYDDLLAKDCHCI

T5: Human BMP9 (human, UniProt Q9UK05 320-429)
T5 sequence (looked up): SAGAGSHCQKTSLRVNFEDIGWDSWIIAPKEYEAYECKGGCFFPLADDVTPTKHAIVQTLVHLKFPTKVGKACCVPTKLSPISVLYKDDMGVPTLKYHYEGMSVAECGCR

T6: Human Activin B (human, UniProt P09529 293-407)
T6 sequence (looked up): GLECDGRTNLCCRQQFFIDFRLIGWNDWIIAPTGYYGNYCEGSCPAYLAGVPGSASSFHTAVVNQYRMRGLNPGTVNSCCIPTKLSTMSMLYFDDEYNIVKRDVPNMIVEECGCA

T7: GDNF (UniProt P39905 78-211)
T7 sequence (looked up): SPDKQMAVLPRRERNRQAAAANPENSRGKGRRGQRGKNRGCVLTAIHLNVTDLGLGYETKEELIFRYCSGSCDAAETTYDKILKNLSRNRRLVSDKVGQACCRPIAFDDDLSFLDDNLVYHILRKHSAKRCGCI

T8: GDF10 (UniProt P55107 369-478)
T8 sequence (looked up): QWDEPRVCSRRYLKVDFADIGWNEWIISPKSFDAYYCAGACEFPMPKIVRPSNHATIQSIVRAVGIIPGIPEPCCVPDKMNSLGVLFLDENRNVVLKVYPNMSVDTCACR

T9: Human BMP10 (human, UniProt O95393 317-424)
T9 sequence (looked up): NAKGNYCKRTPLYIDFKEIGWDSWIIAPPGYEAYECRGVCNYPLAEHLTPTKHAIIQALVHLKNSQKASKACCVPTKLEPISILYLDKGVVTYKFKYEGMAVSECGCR


What was measured:
Human GDF15 Fc [1] = target: T1, Human GDF15 Fc; assay: BLI Octet; antigen on sensor, 100 nM Fab (monovalent)
Mouse GDF15 Fc = target: T2, Mouse GDF15 Fc; assay: as above
Cyno GDF15 Fc = target: T3, Cyno GDF15 Fc; assay: as above
[2] = target: T4, GDF15 (ligand used in the GFRAL/RET …); assay: cell-based or functional assay
Human GDF15 Fc [3] = target: T1, Human GDF15 Fc; assay: SPR Biacore 8K; biotinylated antigen captured, Fab analyte
Procedure: Kinetic analysis was conducted at 25° C. in HBS-EP+running buffer (10 mM HEPES pH 7.4, 150 mM NaCl, 3 mM EDTA, 0.05% Surfactant P20) using a Biacore 8K optical biosensor (Cytiva, Marlborough, MA). The sample compartment was maintained at 10° C. for the duration of the experiment. The Biacore 8K can analyze up to 8 separate interactions in a single cycle.
Each experiment cycle began with an injection (300 s at 2 μL/min) overflow cells 1 and 2 of a 1:100 solution of biotin CAPture reagent (Cytiva) in running buffer. This was followed by an injection (45 s at 10.0 μL/min) of biotinylated human GDF15 (5 nM) overflow cell 2. […] The dissociation of the antibodies were monitored for 3420 s. Finally, an injection (120 s at 10 μL/min) of regeneration solution (6 M Guanidine-HCl in 0.25 M NaOH) overflow cells 1 and 2 prepared the sensor surface for another cycle. Several blank buffer samples were injected (300 s at 30 μL/min) overflow cells 1 and 2 throughout the duration of the experiment and used for reference surface subtraction—each were monitored for the same amount of dissociation time (3420 s) and regenerated under the same conditions as those for the Fab sample injections.

Human BMP9 = target: T5, Human BMP9; assay: BLI Octet; IgG on sensor, 100 nM antigen (avid)
Human Activin B = target: T6, Human Activin B; assay: BLI Octet; IgG on sensor, 100 nM antigen (avid)
Human GDF15 Fc [4] = target: T1, Human GDF15 Fc; assay: BLI Octet; IgG on sensor, 100 nM antigen (avid)
Procedure: Briefly, ForteBio affinity measurements were performed by loading IgGs on-line onto AHC sensors. Sensors were equilibrated off-line in assay buffer for 30 min and then monitored on-line for 60 seconds for baseline establishment. Sensors with loaded IgGs were exposed to 100 nM antigen for 3 minutes, and afterwards were transferred to assay buffer for 3 min for off-rate measurement. All kinetics were analyzed using the 1:1 binding model.

GDNF = target: T7, GDNF; assay: BLI Octet; IgG on sensor
GDF11 = target: T10, GDF11 (UniProt O95390 299-407); assay: BLI Octet; IgG on sensor
T10 construct: Also used as ligand in the Activin 2B receptor/SMAD reporter assay

GDF8 = GDF8 (UniProt O14793 267-375); assay: BLI Octet; IgG on sensor
GDF10 = target: T8, GDF10; assay: BLI Octet; IgG on sensor
Human BMP10 = target: T9, Human BMP10; assay: BLI Octet; IgG on sensor

T10 sequence (O95390 299-407 limits assumed): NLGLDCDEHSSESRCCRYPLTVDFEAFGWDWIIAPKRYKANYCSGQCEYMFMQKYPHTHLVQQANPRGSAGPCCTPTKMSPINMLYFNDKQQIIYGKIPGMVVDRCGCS

Binder | Kd (Human GDF15 Fc [1]) [nM] | Kd (Mouse GDF15 Fc) [nM] | Kd (Cyno GDF15 Fc) [nM] | GDF15 GFRAL RET pERK Fab IC50 pM [2] [pM] | Kd (Human GDF15 Fc [3]) [nM] | koff (Human GDF15 Fc [3]) [s⁻¹] | kon (Human GDF15 Fc [3]) [M⁻¹ s⁻¹] | binding result (Human BMP9) | Kd (Human Activin B) [nM] | Kd (Human GDF15 Fc [4]) [nM] | GDF15-GFRAL RET pERK IC50 (pM) [2] [pM] | GDF15-GFRAL-RET Luciferase IC50 (pM) [2] [pM] | binding result (GDNF) | binding result (GDF11) | binding result (GDF8) | binding result (GDF10) | binding result (Human BMP10)
GDF15 antibody agent Clone M, Fab (Fab, V domains shown, Fab; CH1 and CL of the Fab not specified; also called Fab of Clone M) VH: QVQLVQSGAEVKKPGASVKVSCKASGYTFDSYGINWVRQAPGQGLEWMGWISAYSGDTAYAQELQGRVTMTTDTSTSTAYMELRSLRSDDTAVYYCVRDTQYGGSPYWGQGTLVTVSS VL: EIVMTQSPATLSVSPGERATLSCRASQSVSSNLAWYQQKPGQAPRLLIYGASTRATGIPARFSGSGSGTEFTLTISSLQSEDFAVYYCQQYNNWPITFGGGTKVEIK | 3.88 | 31.4 | 1.91 | 1370 | 0.599 | 0.00191 | 3.2e+06 |  |  |  |  |  |  |  |  |  | 
GDF15 antibody agent Clone B, IgG (antibody, V domains shown) VH: QVQLQESGPGLVKPSQTLSLTCTVSGGSISSGGIYWTWIRQHPGKGLEWIGAIAYSGSTYYNPSLKSRVTISVDTSKNQFSLKLSSVTAADTAVYYCARGIEYQHFDYWGQGTLVTVSS VL: not shown |  |  |  |  |  |  |  | binds | 145 | 0.26 | 104 | 66.2 | no binding (tested: 100 nM) | no binding (tested: 100 nM) | no binding (tested: 100 nM) | no binding (tested: 100 nM) | 
GDF15 antibody agent Clone E, Fab (Fab, V domains shown, Fab; CH1 and CL of the Fab not specified; also called Fab of Clone E) VH: QVQLVQSGAEVKKPGASVKVSCKASGYTFTSYGINWVRQAPGQGLEWMGWITAYSGDTNYAQKLQGRVTMTTDTSTSTAYMELRSLRSDDTAVYYCARGPGQYADVDVWGQGTMVTVSS VL: DIQMTQSPSSVSASVGDRVTITCRASQGISSWLAWYQQKPGKAPKLLIYAASSLQSGVPSRFSGSGSGTDFTLTISSLQPEDFATYYCQQANSFPITFGGGTKVEIK | 0.921 | 3.08 | 0.413 | 46.7 | 0.0331 | 8.71e-05 | 2.63e+06 |  |  |  |  |  |  |  |  |  | 

Second part, the binder after the results:

Kd (Human GDF15 Fc [1]) [nM] | Kd (Mouse GDF15 Fc) [nM] | Kd (Cyno GDF15 Fc) [nM] | GDF15 GFRAL RET pERK Fab IC50 pM [2] [pM] | Kd (Human GDF15 Fc [3]) [nM] | koff (Human GDF15 Fc [3]) [s⁻¹] | kon (Human GDF15 Fc [3]) [M⁻¹ s⁻¹] | binding result (Human BMP9) | Kd (Human Activin B) [nM] | Kd (Human GDF15 Fc [4]) [nM] | GDF15-GFRAL RET pERK IC50 (pM) [2] [pM] | GDF15-GFRAL-RET Luciferase IC50 (pM) [2] [pM] | binding result (GDNF) | binding result (GDF11) | binding result (GDF8) | binding result (GDF10) | binding result (Human BMP10) | Binder
 |  |  |  |  |  |  | binds | 188 |  |  |  | no binding (tested: 100 nM) | no binding (tested: 100 nM) | no binding (tested: 100 nM) | no binding (tested: 100 nM) |  | GDF15 antibody agent Clone R, IgG (antibody, V domains shown) VH: QVQLQESGPGLVKPSQTLSLTCTVSGGSISSGGIYWTWIRQHPGKGLEWIGAIAYSGSTYYNPSLESRVTISVDTSKNQFSLKLSSVTAADTAVYYCARGIEYQHFDYWGQGTLVTVSS VL: not shown
 |  |  |  |  |  |  | binds | 172 |  |  |  | no binding (tested: 100 nM) | no binding (tested: 100 nM) | no binding (tested: 100 nM) | no binding (tested: 100 nM) | no binding (tested: 100 nM) | GDF15 antibody agent Clone Q, IgG (antibody, V domains shown) VH: QVQLQESGPGLVKPSQTLSLTCTVSGGSISSGGIYWTWIRQHPGKGLEWIGAIAYSGSTYYNPSLKSRVTISVDTSKNQFSLKLSSVTAADTAVYYCARGIEYQHFDYWGQGTLVTVSS VL: not shown
